Measured values reported in US20230331827A1, “POTASSIUM CHANNEL INHIBITORS” (priority 2017, published 2023).

Experiments:
[1] = biological target: human Kv1.3 (human) (UniProt P22001); experiment: cell-based or functional assay
[2] = biological target: human Kv1.1 (human) (UniProt Q09470); experiment: cell-based or functional assay
[3] = biological target: T1, human ASIC1a (human) (UniProt P78348); experiment: cell-based or functional assay
T1 sequence (looked up): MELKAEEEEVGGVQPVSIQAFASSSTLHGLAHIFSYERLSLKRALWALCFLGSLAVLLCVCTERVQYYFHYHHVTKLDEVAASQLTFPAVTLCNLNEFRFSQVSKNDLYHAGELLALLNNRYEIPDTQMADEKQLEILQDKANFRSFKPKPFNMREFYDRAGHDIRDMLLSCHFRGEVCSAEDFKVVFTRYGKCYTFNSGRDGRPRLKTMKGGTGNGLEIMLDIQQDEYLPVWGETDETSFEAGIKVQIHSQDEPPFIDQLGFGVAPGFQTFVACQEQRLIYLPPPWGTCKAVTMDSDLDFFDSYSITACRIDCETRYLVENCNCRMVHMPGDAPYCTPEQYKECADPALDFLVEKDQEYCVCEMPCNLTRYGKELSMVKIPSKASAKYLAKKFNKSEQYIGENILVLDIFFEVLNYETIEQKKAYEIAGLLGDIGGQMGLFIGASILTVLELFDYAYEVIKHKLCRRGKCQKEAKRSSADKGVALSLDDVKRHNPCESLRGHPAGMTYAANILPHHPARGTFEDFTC

[4] = biological target: trypsin; experiment: phage TRF, GlyAla mutant against parent clone
[5] = biological target: trypsin; experiment: flow cytometry, biotinylated trypsin/streptavidin-APC
[6] = biological target: trypsin; experiment: flow cytometry of HEK293 cells displaying the scFv-Fc, 15 days post transfection after blasticidin selection; untransfected cells (panel C): Q2 0.043
[7] = biological target: trypsin; experiment: monoclonal phage ELISA on trypsin

Sequence of human Kv1.3 (human) (P22001 whole entry): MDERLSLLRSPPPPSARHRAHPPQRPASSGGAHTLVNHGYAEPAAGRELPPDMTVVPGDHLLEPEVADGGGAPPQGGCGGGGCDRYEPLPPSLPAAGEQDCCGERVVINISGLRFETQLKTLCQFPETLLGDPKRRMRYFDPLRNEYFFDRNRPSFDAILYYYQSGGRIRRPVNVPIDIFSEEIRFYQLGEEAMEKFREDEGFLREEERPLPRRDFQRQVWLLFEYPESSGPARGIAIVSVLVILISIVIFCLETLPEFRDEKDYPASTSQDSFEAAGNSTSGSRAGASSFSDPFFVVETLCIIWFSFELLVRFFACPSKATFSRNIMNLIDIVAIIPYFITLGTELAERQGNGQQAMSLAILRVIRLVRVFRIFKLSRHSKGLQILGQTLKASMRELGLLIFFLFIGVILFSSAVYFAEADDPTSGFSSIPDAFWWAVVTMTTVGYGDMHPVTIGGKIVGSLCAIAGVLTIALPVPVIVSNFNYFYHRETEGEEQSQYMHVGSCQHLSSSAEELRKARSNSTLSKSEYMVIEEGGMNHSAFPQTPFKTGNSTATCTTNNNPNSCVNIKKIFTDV
Sequence of human Kv1.1 (human) (Q09470 whole entry): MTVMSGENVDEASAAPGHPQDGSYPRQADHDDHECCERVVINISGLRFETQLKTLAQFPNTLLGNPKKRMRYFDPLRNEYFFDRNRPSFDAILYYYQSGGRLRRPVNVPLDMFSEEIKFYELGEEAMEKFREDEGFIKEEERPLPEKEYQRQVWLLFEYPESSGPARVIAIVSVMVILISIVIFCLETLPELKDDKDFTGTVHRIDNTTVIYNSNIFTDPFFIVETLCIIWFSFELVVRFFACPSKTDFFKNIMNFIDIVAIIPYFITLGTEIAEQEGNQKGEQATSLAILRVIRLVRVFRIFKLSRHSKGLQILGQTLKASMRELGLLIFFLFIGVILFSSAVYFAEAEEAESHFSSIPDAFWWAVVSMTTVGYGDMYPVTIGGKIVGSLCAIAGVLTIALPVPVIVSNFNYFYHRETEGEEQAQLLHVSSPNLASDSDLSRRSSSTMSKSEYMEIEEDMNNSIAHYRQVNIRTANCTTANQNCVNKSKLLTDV

B1: KB_A07 IgG1 (EETI-II fusion) (antibody, V domains shown)
VH: EVQLVESGGGLVRPGGSLRLSCAASGFTFSSYAMSWVRQAPGKGLEWVSAISGSGGSTYYADSVKGRFTISRDNTKNSLYLQMTSLRADDTAFYYCVKDFGPGYGTGWFDYWGPGTLVTVSS
VL: YLNWYQQKPGKAPKLLIYAAGVCPRILMRCKQDSDCLAGCVCGPNGFCGSRSGVPSRFSGSGSGTDFTLTISSLQPEDFATYYCQQGASPPYTFGQGTKVEIKR
IC50, channel current, QPatch patch clamp [1]: > 10 µM
IC50, huKv1.3 current, QPatch patch clamp [1]: > 10 µM
IC50, channel current, QPatch patch clamp [2]: > 10 µM
% ASIC1a current remaining at 6 µM, QPatch [3]: 70.9%

B2: KB_A12 IgG1 (EETI-II fusion) (antibody, V domains shown)
VH: B1 VH
VL: AVNWYQQLPGKAPKLLIYAAGRCPRILMRCKQDSDCLAGCVCGPNGFCGANSGVSDRFSAAKSGTSASLAINGLRSEDEADYYCAAWDDSLNGYVFGTGTKLTVLG
IC50, channel current, QPatch patch clamp [1]: > 10 µM
IC50, huKv1.3 current, QPatch patch clamp [1]: > 10 µM
IC50, channel current, QPatch patch clamp [2]: > 10 µM
% ASIC1a current remaining at 3.3 µM, QPatch [3]: 67.4%

B3: KB_A11 GlyAla mutant (scFv on phage) (scFv, V domains shown)
VH: B1 VH
VL: YLNWYQQKPGKAPKLLIYAAEICGAILMRCKQDSDCLAGCVCGPNGFCGPSSGIPARFSGSGYGTDFTLTINNIESEDAAYYFCLQHDNFPYTFGQGTKVEIKR
% reduction in binding signal [4]: 100%

B4: KB_A07 scFv-Fc displayed on HEK293 cells (Fc fusion)
VH: B1 VH
VL: DIQMTQSPSSLSASVGDRVTITCRASQSISSYLNWYQQKPGKAPKLLIYAAGVCPRILMRCKQDSDCLAGCVCGPNGFCGSRSGVPSRFSGSGSGTDFTLTISSLQPEDFATYYCQQGASPPYTFGQGTKVEIKRT
% of transfected HEK293 cells dual stained for Fc and trypsin [5]: 34%
Q2, share of cells stained by both anti-Fc-PE (FL2) and biotinylated trypsin/streptavidin-APC (FL4) [6]: 33.8%

B5: KB_A12 scFv-Fc displayed on HEK293 cells (Fc fusion)
VH: B1 VH
VL: QSVLTQPPSVSEAPRQRVTITCSGSSSNIGNNAVNWYQQLPGKAPKLLIYAAGRCPRILMRCKQDSDCLAGCVCGPNGFCGANSGVSDRFSAAKSGTSASLAINGLRSEDEADYYCAAWDDSLNGYVFGTGTKLTVLGQP
% of transfected HEK293 cells dual stained for Fc and trypsin [5]: 11%
Q2, share of cells stained by both anti-Fc-PE (FL2) and biotinylated trypsin/streptavidin-APC (FL4) [6]: 11.2%

B6: G11 (EET 5-3 KnotBody) (scFv, V domains shown)
VH: B1 VH
VL: AVNWYQQLPGKAPKLLIYAAGGCGPNGFCGSGSDGGVCPRILMRCKQDSDCLAGCGQSSGVSDRFSGSKSGTSATLDITGLQTGDEADYYCGTWDNSLSVGVFGGGTKVTVLG
ELISA signal [7]: 27600

B7: F03 (EET 5-3 KnotBody) (scFv, V domains shown)
VH: B1 VH
VL: AVNWYQQLPGRAPKLLIYAAGGCGPNGFCGSGGDGGVCPRILMRCKQDSDCLAGCGAHSGIPERFSGSKSGTSASLAISGLRSEDEADYYCAAWDDSLNGWVFGGGTKVTVLG
ELISA signal [7]: 68000

B8: KB_A01 GlyAla mutant (scFv on phage) (scFv, V domains shown)
VH: B1 VH
VL: YLNWYQQKPGKAPKLLIYAAEVCGAILMRCKQDSDCLAGCVCGPNGFCGGTSGVPSRFSGSRSGTEFTLTISSLQPEDFATYYCQKVDDYPLTFGGGTKVEIKR
% reduction in binding signal [4]: 93%
